Data from the nanobody polyreactivity screen of Harvey et al. (2022).

Assay: yeast display, Sf9 membrane polyspecificity reagent, FACS + sequencing; frameworks hold sequencing errors
In short: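 Synthetic nanobody libraries on Saccharomyces cerevisiae BJ5465 were galactose-induced for 36–48 hours, stained 1 hour at 4 °C with 10% biotinylated, detergent-solubilized Sf9 membrane reagent and enriched on streptavidin microbeads. FACS then separated cells into low and high (top ~1%) gates by anti-HA (expression) and streptavidin (reagent binding) fluorescence. Genes were colony-PCR amplified, MiSeq 2 × 250 sequenced and CDR-length filtered. A clone's polyreactivity label is that of its gate of origin.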

Sequence	polyreactivity (PSR sort gate)
QVQLQESGGGLVQSGGSLRLSCAASGFIFARNYMGWYRQAPGKERELVAGIGVGASTNYADSVKGRFTISRDNAKNTVYLQMNSLKPEDTAVYYCNARTGTTWQGYEYDYWGQGTQVTVSS	low polyreactivity
QVQLVESGGGLVQAGGSLRLSCAASGYIFVKNAMGWYRQEPGKERELVAAISSSGGSTYYADSVKGRFTISRDNAKNTVYLQMNSLKPEDTAVYYCNVYGSYTSVSRQSDWWPDYGYWGQGTQVTVSS	low polyreactivity
QVQLVESGGGLVQAGGSLRLSCAASGFIFWWYGMGWYRPAPGKEREFVAAITQSGSTYYADSVKGRFTISRDNAKNTVYLQMNSLKPEDTAVYYCADVVGRRLYPRYDYWGQGTQVTVSS	high polyreactivity
QVQLVESGGGLVQAGGSLRLSCAASGSTFLDNAMGWYRQAPGKERELVAVITASDTNTNYADSVKGRFTISRDNAKNTVYLQMNRLKPEDTAVYYCNADATYTSYDYWGQGTQVTVSS	low polyreactivity
QVQLQESGGGLVQAGGSLRLSCAASGNISVTGFMGWYRQAPGKERELVASIGIGGTTYYADSVKGRFSISRDNAKNTVYLQMNSLKPEDTAVYYCAARVIYYYGSGPYDYWGQGTQVTVSS	low polyreactivity
QVQLVESGGGLVQAGGSLRLSCAASGSTFFSYVMGWYRQAPGKERELVAAISNGGSTYYADSVKGRFTISRDNAKNSVYLQMNSLKPEDTAVYYCAAGGRRKRGNYWGQGTQVTVSS	high polyreactivity
QVQLVESGGGLVQAGGSLSLSCAASGLIFYIYAMGWYRQAPGKEMELVAAITESGGSTYYADSVKGRFTISRDNAKNTVYLQMNSLKPEDTAVYYCAKDFHNYPSFGEDYWGQGTQVTVSS	low polyreactivity
QVQLVESGGGLVQAGGSLRLSCAASGSIFDSYAMGWSRQAPGKERELVAAITWSGGITFYADSVKGRFTISRDNAKNTVYLQMNSLKPEDTAVYYCATARSYVGVGGTFVGLYDYWGQCTQVTVSS	low polyreactivity
QVQLVESGGGFVQAGGSLRVSCAASGSIFRPDAMGWYRPAPGKERELVAAITWSGGRTYYADSVKGRFTISRDNAKNTVDLQMNSLKPEDTAVYYCAARPRYYYWFKSGTRVEYDYWGQGTQVTVSS	high polyreactivity
QVQLLESGGGLVQAGGSLRLSCAATRRIFEYNGMGWYRQAPGKDSELVAAIEWNGSPTYADSVKGRFTIARDNAKNTVYLLMNSLKPEDTSVYYCAKAYPGKAPKYDYWGQGTQVTVSS	low polyreactivity
QVQLVESGGGLVQAGGSLRLSCAAYGSIFKRYAMGWYRQAPGKERELVASNSSSGSSTNYADSVKGRFTISRDTAKNTVYLQMNSLKPEDTSVYYCAADTKASGTPVYYSYLYDYWGQGTHVTVSS	high polyreactivity
QVQLVESGGGLVQAGGSLRLSCAASGSNFYSYVMGWYRQAPGKERELVAAISRNGQSTYYADSVKGRFTISRDNAKNTVYLQMNSLKPEDTAVYYCAARSRDKYDYWGQGTQVTVSS	high polyreactivity
QVQLVESGGGVVQAGGSLRLSCAASGRIFIYYTMGWYRQAPGKEREFVAAITYSGGSTRYADSVKGRFTISRDNAKNTVYLQMNSLKPEDTAFYYCAAKFSVRRGFDYWGQGTQVTVSS	low polyreactivity
QVQLVESVGGLVQAGGSLRLSCAASGRTFLRNAMGWYRQAPGKERELVASITSRGGRTYADSVKGRFTISRDNAKNTVYLQMNSLKPEDTAVYYCAARRQAGLRYDYWGQGTQVTVSS	high polyreactivity
QVQLQERGGGLVQAGGSLLSCAASGTISYYREMGWYRQAPGKERELVAGIGVGTITYYADSVKGRFTISRDNAKNTVYLQMNRLKPEDTAVYFCAAHIDGNDSHAYWGQGTQVTVSS	low polyreactivity
QVQLVESGGGLVQAGGSLRLSFAASGRTFDRYDMGWYRQAPGKERELVATISSSGGSTYYADSVKGRFTISRDNAKNTVYLQMNSLKPEDTAVYYCAADPSGDYWGQGTQVTVSS	low polyreactivity

Sequence	polyreactivity (PSR sort gate)
QVQHVESGGGLVQAGCSLRLSCAASGSIFWRYAMGWSRQAHGKEREFVAAISGSGVRTSYADSVKGRFTISRDNAKNTVYLQMNSLIPEDTAVYYCAARVSYRYTSAAYEYWGQGTQVTVSS	high polyreactivity
QDQLVESGGGLVQTGGSLRLSCASSGLIFTYYALGWYRQAPGTERELVAANRGSYSSTYYADSVKGRFTISRDNAKNTVYLHMNSLKPEDTAVYYCAAKYYWGQGTQVTVSS	high polyreactivity
QVQLVESAGGLVQAGGSLRLSCAASGIIFRYYAMGWYRQAPGKERELVARITSRGGTYYADSVKGRFTISRDNAKNNVYLQMNSLKPEDTAVYYCAASYLLTHGYAYNYWGQGTQVTVSS	high polyreactivity
QFQLVESGGGIVQAGGSLRLSCYASGTFYKYAMGWNTQAPGKERELVAAISWRGGRTYADSVKGRFTISRDNAKNTVYLQMNSLIPEDTAVYYCYKRFYPEHYYWGQGTQVTVSS	high polyreactivity
QVQRVESGGGLVPAGGSLRLSCAASGSIFYYNAMGWYRQAPGKERELVAAISWGDGITYYADSVKGRFTISRDNAKKTVYVQMNSLKPEDTAVYYCAVDYYYLPYEYWGQGTQVTVSS	high polyreactivity
QVQLVESGGGLVQAGGSLRLSCAASGRTFGTYAMGWYRQAPGKERELVARISYTGGSTSYADSVKGRFTISRDNAKNTVYLQMNSLKPEDTAVYYCNASSRSGSWRFYYWGQGTQVTVSS	high polyreactivity
QVQLVESGGGLVQAGGSHRLSCAASGSTFKNYPMGGYRQAPGQEREFVAAINVSGARTYYADSVKGRFTISRDNAKNTVYLQMNSLKPEDTAVYYCAAYYSGVGYDYWGQGTQVTVSS	high polyreactivity
QVQLVESGGGLVQAGGSLRLSCAASGRIFITNAMGWYRQAPGKERELVAVISYIGGRTYYADSVKGRFTISRDNAKNTVYLQMNSLKPEATAVYYCAARRSRPTYYSTGVNYWGQGTQVTVSS	high polyreactivity
QVQLVESGGGLVQAGGSLRLSCAASGRTFQENGMGWYRQAPGKERELVATISQRGTSTYYADSVKGRFTISRDNAKNTVYLQMNSLKPEDTAVEYCARRRVYRWYTGDYWGQGTQVTVSS	low polyreactivity
QVQLGESGGGLVQAGGILRLSCAASGSIFARYAMGWYRQPPGKERELVAAISSNSASTYYADSVKGRFTISRDNAKNTVYLQMNCLIPEDTAVYYCATAYRSYWLNDYWGQGTQVTVSS	low polyreactivity
QVQLVESGGGLVQAGGSLRLSCAASGRTFYGYAMGWYRQAPGKERELVAAISRRGGSTNYADSVKGRFTISRDNAKNSVYLQMNSLKPEDSAVYYCNANYYRTHYDYWGQGTQVTVSS	high polyreactivity
QVQLVESGGGLVQAGGSLRLSCAASGSTFSGYAMGWYRQAPGKERELVAAISTDDTYYADSVKGRFTISRDNPKNTVYLQKNSLKPEDTAVYYCAADYLGYYGLEEHWGQGTQVTVSS	high polyreactivity
QVQLVESGGGLVQAGGSLRLSCAASGFTFDWNAMGWYRQAPGKERELVAAISNSDGSTYYADSVKGRFTISRDNAKNTVYLQMNSLKPEDTAVYYCNKLYRGGWYAYWGQGTQVTVSS	low polyreactivity
QVQLVESGGGIVQAGGSLRLICAASGSIFSSYVMGWYRQAPGKERELVAAITSRGGSTYYADSVKGRFTISRDNAKNTVYLQMNSLKPEDTAVYYCAKGGTTWYWSGYRSIYFRYDYWGQGTQVTVSS	high polyreactivity
QVQLVESGGGLDQAGGSLRLSCAASGFTFRYYAMGWYRQAPRKERELVAAIRRGGTTNYADSVKGRFTISRDNAKNTVYLQMNSLKPEDTAVYYCANYRYGYDYWGQGTQVTVSS	high polyreactivity
QVQLVESCGGLVQAGGSLRLSCAASGIIFGVYALGWYRQAPGKERELVAAIDGNGSSTSYADSVKGRFSISRDNAKNTVYLQINSLKPEDTAVYYCAAGYWYYLYYCYDFDYWGQGTQVTVSS	low polyreactivity
